Data set [1] is described as follows: purified protein yield per well (BCA); higher = higher soluble expression. The procedure, abridged:
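On an OT-2 robot, lysed cells were processed by binding protein to Ni-charged magnetic beads and releasing it with SUMO protease. Expression took place in E. coli C41(DE3), in 2 mL autoinduction cultures with 100 µg/mL kanamycin, for 2 h at 37 °C followed by 40 h at 18 °C. The Pierce Rapid Gold BCA kit was used to quantify purified protein yield in each well, with values under 25 ug (0.1 mg/mL) below the detection threshold.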

Data set [2] in a line: melting temperature (DSF); higher = more thermostable. The gist of the method:
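Values are melting temperatures from differential scanning fluorimetry. Candidate enzymes were expressed in E. coli C41(DE3), purified on nickel beads and freed by SUMO protease cleavage. In sealed PCR plates on a Bio-Rad CFX96, 45 μL enzyme (0 to 0.3 mg/mL) was combined with 5 μL 5X Sypro Orange. Fluorescence was recorded from 25 °C for 250 cycles, rising 0.3 °C per cycle at a ramp of 0.3 °C/s.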

The nature of data set [3]: PET hydrolysis, aromatic products released after 48 h (umol product/mg enzyme); higher = more PET depolymerization activity. The procedure, abridged:
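The measure of PET hydrolysis activity is aromatic product released into the supernatant, given per mg enzyme. Nickel-purified, SUMO-cleaved enzyme without tag was added at 5 μg (50 μL) to 3.5 mg amorphous PET film or crystalline PET powder in 450 μL of citrate, phosphate or glycine buffer spanning pH 4.5 to 8.5. After 48 h at 40 or 60 °C in sealed plates without shaking, absorbance at 260 and 280 nm was taken against buffer blanks.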

The mark [4] stands for this setting: substrate: aFilm, 40 °C, pH 4.5.
Where [5] appears, read: substrate: aFilm, 40 °C, pH 5.5.
Setting [6] is: substrate: aFilm, 40 °C, pH 6.5.
Where [7] appears, read: substrate: aFilm, 40 °C, pH 7.5.
Where [8] appears, read: substrate: aFilm, 60 °C, pH 4.5.
Setting [9] is: substrate: aFilm, 60 °C, pH 5.5.
Where [10] appears, read: substrate: aFilm, 60 °C, pH 6.5.
[11] abbreviates: substrate: aFilm, 60 °C, pH 7.5.
Where [12] appears, read: substrate: cryPow, 40 °C, pH 4.5.
The mark [13] stands for this setting: substrate: cryPow, 40 °C, pH 5.5.
[14] abbreviates: substrate: cryPow, 40 °C, pH 6.5.
Where [15] appears, read: substrate: cryPow, 40 °C, pH 7.5.
[16] abbreviates: substrate: cryPow, 60 °C, pH 4.5.
The mark [17] stands for this setting: substrate: cryPow, 60 °C, pH 5.5.
Setting [18] is: substrate: cryPow, 60 °C, pH 6.5.
The mark [19] stands for this setting: substrate: cryPow, 60 °C, pH 7.5.

We go through 5 sequences from the supplement of paper PMC12455559.

± gives the standard deviation of the averaged measurements. Where only a bound is given, the exact number is not on record here.

Take “ADNPFQRGPNPTVESVAATRGTFATAQTSVPAGNGFGGGVVYYPTDTSQGTFGGVAIVPGYSALFADEEAWMGPWLASFGFVVIGIETNSRTDSADARGTQLLAALDYLTQRSPVRDRVDPNRLSVVGHSAGGAGVLSALLRRPSLKAGVGLAPGSPVGNYDLYDDRVPTMFISGQRDTTVTRSYLNGLYGTLPATTPSAWVEITGVDHLFATRANTTEMRVLIPWLKIWVDDDTRYTRFLCPLADSTGISMYRDTCPYVPPGGSSPSPSASPSPSPSPSPSPSPSPSPSPSPSPSPSPSPSASPSASPSPPPPGACAAEYHTVNSWPGGYQASVTVTAGASAVQGWTVRWTLGSGQSITQLWNGTLSTSGSAVTVKNASYNGTIPASGSATFGFLATGTPSAPPLTCTSP [ESM067]”: in data set [1], the “purified protein yield per well” value was 447 µg. Further, in data set [2], the melting temperature came out at 57.1 C. The PET hydrolysis in data set [3] (setting [4]), in data set [3] (setting [5]), in data set [3] (setting [6]), in data set [3] (setting [7]), in data set [3] (setting [8]) and in data set [3] (setting [9]) was less than 3 throughout. In addition, the PET hydrolysis in data set [3] (setting [10]), in data set [3] (setting [11]), in data set [3] (setting [12]), in data set [3] (setting [13]), in data set [3] (setting [14]) and in data set [3] (setting [15]) was less than 3 in each case. The PET hydrolysis in data set [3] (setting [16]), in data set [3] (setting [17]), in data set [3] (setting [18]) and in data set [3] (setting [19]) was less than 3 in each case.
With “VQIGPAPTKASLEASRGPFTVATTRLSANGHGGGTIYYPTNAGAKVGVIAIVPGYLSYQSSIEWWGPRLASHGFAVVTIDTLTIYDQPSSRSSQQLRALDQVVALGSKSTSPLYNKVDGSRTGVMGWSMGGGGSLISAQNRPSIKAAAPQAPWNTTSNFSSLTVPTLIFACQADVVAPILSHAVPFYNSMSRNPKQYLERTAGDHFCFNNANPTVGLKGVAWMKRFIDGDTRYTSFACSNPNALGFSSFRTERCS [ESM053]”, in data set [1], the “purified protein yield per well” value came to 103 µg. In addition, the melting temperature in data set [2] is 62.8 C. Also, the PET hydrolysis is less than 3 in data set [3] (setting [12]); 6 in data set [3] (setting [13]); 10 in data set [3] (setting [14]); 32 in data set [3] (setting [15]); less than 3 in data set [3] (setting [16]); less than 3 in data set [3] (setting [17]). Also, the PET hydrolysis in data set [3] (setting [18]) is 6; in data set [3] (setting [19]), 10.
Take “NPYERGPDPTTASIEASRGSFATSTVTVSRLAVSGFGGGTIYYPTTTTAGTFGAISIAPGFTATQSSMAWLGPRLASQGFVVFTIDTITTSDQPDSRGRQLLASLDYLTQQSSVRSRIDSSRLGVVGHSMGGGGTLEAARSRPSLQAAVPLTGWNLTKNWSTLRVPTLVVGAQSDTIAPVASHSIPFYTSLPSTLDRAYLELRGASHFAPNTSNTTIAKYTLSWLKRFIDNDTRYEQFLCPIPSSSLSISDYRGNCPHNG [ESM167]”: the “purified protein yield per well” value in data set [1] turned out to be 254 µg. Besides, the melting temperature in data set [2] stood at 55.3 C. The PET hydrolysis is less than 3 in data set [3] (setting [4]); 4 in data set [3] (setting [5]); 6.5 ± 0.71 in data set [3] (setting [6]); 7.5 ± 0.71 in data set [3] (setting [7]); less than 3 in data set [3] (setting [8]); less than 3 in data set [3] (setting [9]). Further, the PET hydrolysis in data set [3] (setting [10]) was 2 ± 2.8; in data set [3] (setting [11]) it was 2.5 ± 3.5; in data set [3] (setting [12]), 2 ± 2.8; in data set [3] (setting [13]), 12.5 ± 2.1; in data set [3] (setting [14]), 21 ± 4.2; in data set [3] (setting [15]), 35.5 ± 0.71. The PET hydrolysis in data set [3] (setting [16]) is less than 3; in data set [3] (setting [17]), 10.5 ± 2.1; in data set [3] (setting [18]) it was 20 ± 1.4; in data set [3] (setting [19]), 26 ± 1.4.
With “ADNPYQRGPDPTRTSVTAVNGPFANTSVSVPTGQGFNGGRIYYPTDTSQGTFGAVAISPGYTALFSAELAWMGPWLASHGFVVIGIETNSTNDFDTARGTQLLAALDYLTQRSSVRDRVDPNRLAVSGHSMGGGGALSAAARRSSLKAVVGITPYSPSSNLANVRVPTMVVSGQADTVVTPSYALNLYNSLPSTTESVYLEVAGGDHGFMVGRSNPVLVRTMLPFLKMFVDNDTRYSQFLCPLMDNSGVVTYRSTCPLLPTPTTPPPTTGPTTPPPTTPPTTTPPPSGSTGQIVGTQSNRCIDVPNSSRNNGTRVQLYDCHGQANQTWTYDSSTKQLRVYGDMCLDASGSGNGAAVQIYSCHNQTNQQWNINSNGTISGVQSNRCLDAWSTNNGAQIQLYDCHGQTNQQFRIRA [TEP168]”, the “purified protein yield per well” value in data set [1] amounted to 213 µg. Besides, in data set [2], the melting temperature is 65.2 C. Besides, the PET hydrolysis in data set [3] (setting [4]), in data set [3] (setting [5]), in data set [3] (setting [6]), in data set [3] (setting [7]), in data set [3] (setting [8]) and in data set [3] (setting [9]) was less than 3 throughout. Also, the PET hydrolysis in data set [3] (setting [10]) was less than 3; in data set [3] (setting [11]) it was less than 3; in data set [3] (setting [12]), 4; in data set [3] (setting [13]), 9; in data set [3] (setting [14]), 9 ± 1.4; in data set [3] (setting [15]) it was 4.5 ± 0.71. In addition, the PET hydrolysis in data set [3] (setting [16]), in data set [3] (setting [17]), in data set [3] (setting [18]) and in data set [3] (setting [19]) was less than 3 each time.
For “MRPGRVCPDSCGCRPSSRRKDATIVQQLRNETIGSPSPHRAPRRFRPRLVRAGLAALLAAGGLFTAQSGSAGAAQNPYERGPAPTVSSIEAPRGPYAVSETRVSSLGVTGFGGGTLYYPTTTRDGTFGAVAISPGYGGTQSSISWLGPRLASQGFVVFTIDTLSTLDQPAGRGGQLLAALDYLTQRSSVRDRVDSGRLGVMGHSMGGGGSLEAAKSRPALQAAIPLTGWNLDKTWQELRTPTLVVGADGDTIAPVSSHSEPFYESLAGSLDKAYLELNGASHFTPNSSNTTIAKYSVSWLKRFIDNDLRYEQFLCPLPRPGATIEEYRGNCPHTS [TEP099]”, in data set [1], the “purified protein yield per well” value stood at 68.5 µg. Further, in data set [2], the melting temperature stood at 50.2 C. Moreover, the PET hydrolysis in data set [3] (setting [12]), in data set [3] (setting [13]), in data set [3] (setting [14]), in data set [3] (setting [15]), in data set [3] (setting [16]) and in data set [3] (setting [17]) was less than 3 in each case. For the same sequence, the PET hydrolysis in data set [3] (setting [18]) and in data set [3] (setting [19]) was less than 3 in each case.
